The chains are these.
B1: C33B1786 (llama vHH on mono-Fc backbone) (Fc fusion)
chain: EVQVVESGGGVVQSGGSLTLSCEASESILSFSTMDWFRQAPGKEREGVSCIRPRYSTTTHADSIKGRFKMYSDNAKNTIYLHMNSLQPEDTAVYYCHMYHYSSQYWGQGTQVTVSS
notes: not shown: mono-Fc backbone
B2: C33B1787 (llama vHH on mono-Fc backbone) (Fc fusion)
chain: EVQLVESGGGLVQAGGSLRLSCAASGFTFDDYAIGWFRQAPGKEREGVSCISSSDGSTYYVDSVKGRFTISSDNAKNTVYLQMNSLKPEDTAVYYCTALIIMYGSGSERAAAACRYKYEYWGQGTQVTVSS
notes: not shown: mono-Fc backbone
B3: C33B1788 (llama vHH on mono-Fc backbone) (Fc fusion)
chain: QVQLVESGGGLVQPGGSLRLSCAVFGFSLSDYAIGWFRQAPGKEREKVSCISESDGRTYLSDSVKSRFTISRDNGKNTVYLQMNNLKPDDTGVYYCATVDQAISESSYHCEKGFGSWGQGTQVTVSS
notes: not shown: mono-Fc backbone
B4: C33B1789 (llama vHH on mono-Fc backbone) (Fc fusion)
chain: B3 chain with P14A
notes: not shown: mono-Fc backbone
B5: C33B1784 (llama vHH on mono-Fc backbone) (Fc fusion)
chain: EVQLVESGGGLVQAGGSLRLSCAASGRTFSTYVMGWFRQAPGQERELVAAIVSGRNPTYADSVKSRFTISRDNAKNTIYLHMNSLQPEDTAVYYCHMYHYSSQYWGQGTQVTVSS
notes: not shown: mono-Fc backbone
B6: C33B1781 (llama vHH on mono-Fc backbone) (Fc fusion)
chain: EVQVVESGGGLVQGGGSLRLSCAASGSIFSINAMGWYHQAPGKQRELVARITGGGATDYVDSVKGRFTISLDSAKSTVYLQMNSLKPEDTAVYHCYADLVTRVGSDLLYDDYWGQGTQVTVSS
notes: not shown: mono-Fc backbone
B7: C33B1783 (llama vHH on mono-Fc backbone) (Fc fusion)
chain: EVQLVESGGGLVQAGGSLRLSCAASGFTFDDYAVGWFRQVPGKEREGVSCISSSDGATYYADSVKGRFTISSDNAKNTVYLQMNSLKPEDTAVYYCTAIIVRGSGWERAAAACRYEYSYWGQGTQVTVSS
notes: vHH is placed first; not shown: mono-Fc backbone
B8: C33B1782 (llama vHH on mono-Fc backbone) (Fc fusion)
chain: B7 chain with V40A, V48I, S72T, V79A, Y80F, I99V, S104T, S118A
notes: not shown: mono-Fc backbone
B9: C33B1474 (antibody, V domains shown)
VH: QVQLVESGGGLVQPGGSLRLSCAASGFTFSSFGMSWVRQAPGKGLEWVANIKRDGSEKYYVDSVKGRFTISRDNAKNSLFLQMSSLRAEDTAVYYCVRDYGYFDFWGQGTLVTVSS
VL: DIQMTQSPSSLSASVGDRVTITCQASQAISNYLNWYQQKPGKAPKLLIYDASNLETGVPSRFSGSGSGTDFTFTISSLQPEDFSTYFCQHYDNLPYTFGQGTKLEIK
B10: C33B1517 (antibody, V domains shown)
VH: QVQLQESGPGLVKPSETLSLTCSVSGASIRNYYWSWIRQTAGKGLEWLGHIYSTGNIHYNPSLKSRVTMSVDTSNNQFSLKLRSVTAADTAVYYCARDNGAALFDYWGQGTLVTVSS
VL: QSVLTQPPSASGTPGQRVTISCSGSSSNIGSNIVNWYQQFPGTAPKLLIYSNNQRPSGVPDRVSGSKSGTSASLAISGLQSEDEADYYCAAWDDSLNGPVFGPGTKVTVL
B11: C33B1522 (antibody, V domains shown)
VH: QVQLQESGPGLVKPSETLSLTCTVSGGSISSYYWGWIRQPPGKGLEWIGYIYYSGSTNYNPSLKSRVTISVDTSKNQFSLKLSSVTAADTAVYYCARMWEILGFDPWGQGTLVTVS
VL: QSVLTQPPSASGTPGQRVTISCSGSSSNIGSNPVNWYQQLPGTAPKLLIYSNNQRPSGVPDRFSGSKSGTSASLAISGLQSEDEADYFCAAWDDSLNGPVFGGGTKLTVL
B12: C33B1601 (antibody, V domains shown)
VH: EVQLVESGGGLVRPGGSLKLSCAASGFTFSNYAMSWVRQTPEKRLEWVAGISNSGYSLYYPDTLKGRFTISRDNARNTLYLQMISLRSEDTAMYYCARDGGSYPYAMDYWGHGTSVTVSS
VL: DIVMTQSQKFMSTSVGDRVSVTCKASQNVGTYVAWYQQKPGHSPKALIYSASYRYSGVPDRFTGSGSGTDFTLTISNVQSEDLADYFCQQYKSYPLTFGAGTKLELK
B13: C33B1607 (antibody, V domains shown)
VH: EVQLQQSGPELVKPGSSVKISCKASGYTFTDYNINWVKQSHGKNLEWIGTINPNNGVTFYNQRFKGQATLTVDKSSSTAYMELRSLTSEDSAVYYCSRDGYDTYYAMDYWGQGTTLTVSS
VL: DIVMTQSHKFMSTSVGDRVSITCKASQDVRTAEAWYQQKPGQSPKLLIYSASNRYTGVPDRFTGSGSGTDFTFTISSVQAEDLAVYYCQQYYTTPRTFGGGTKLEIK
B14: C33B931 (antibody, V domains shown)
VH: not shown
VL: SYELTQPPSVSVSPGQTASITCSGDKLGSKFASWYQQKPGQSPVLVIYQDSKRPSGIPERFSGSNSGNTATLTISGTQAMDEADYYCQAWDSSTVVFGGGTKLTVL
B15: C33B919 (antibody, V domains shown)
VH: QVQLVESGGGVVQPGRSLRLSCAASGFTFSSYGMHWVRQAPGKGLEWVAVISYDGSNKYYADSVKGRFTISRDNSKNTLYLQMNSLRAEDTAVYYCAKDFRSFDWLPPDSTSYYGMDVWGQGTTVTVSS
VL: B14 VL with S29D, F31Y, A32V, L45V, Y48H, S51R, S66F
B16: C33B937 (antibody, V domains shown)
VH: B15 VH with A23V, D90G, T111A, Y114H
VL: B14 VL with S29D, F31Y, S51G, S66F, T69K, S92R, S93N
B17: C33B125 (antibody, V domains shown)
VH: B15 VH
VL: B14 VL with S29D, F31Y, A32V, S33C, L45V, Y48H, S51R, S66F
B18: C33B933 (antibody, V domains shown)
VH: B15 VH with A40S, N77S, F103L, Y114D
VL: B14 VL with D25H, S29D, F31Y, L45V, Q49K, S66F
B19: C33B1478 (antibody, V domains shown)
VH: EVQLVESGGGLVQPGGSLKVSCEASGFTFSVSAIHWVRQASGKGLEWIGRIRSKGNSYATAYDVSVKGRFTISRDDSKNTAYLQMDSLKTEDTAVYYCTRHNDKWNYYGLDVWGQGTTVTVSS
VL: DIVMTQSPLSLPVTPGEPASISCKSSQSLLFSNGYKFLDWYLQRPGQSPQLLIYLGSYRASGVPDRFSGSGSGTDFTLKISRVEAEDVGLYYCMQALQTPPTFGGGTKVEIK
modifications: In the FIG. 3 assay the antibody carried Alexa Fluor 647 (p-1610); the site is not given and the letters do not carry it.
notes: also called sCD33B1478
B20: C33B1484 (antibody, V domains shown)
VH: B19 VH with S32F
VL: B19 VL with G105Q
notes: also called sCD33B1484
B21: C33B1495 (antibody, V domains shown)
VH: EVQLVESGGGLVQPGGSLRLSCTASGFTFSSYWMSWVRQAPGKGLDWVANIKRDGSEKHYVDSVKGRFTISRDNAKNSLYLQMNSLRAEDSAVYYCTRDYGYFDYWGQGTLVTVSS
VL: DIQLTQSPSFLSASVGDRVTITCRASQGISSYLAWYQQKPGKAPKVLIYAASTLQSGVPSRFSGSGSGTEFTLTISSLQPEDFATYFCQQLNSYPVTFGGGTKVEIK
notes: also called sCD33B1495
B22: C33B1476 (antibody, V domains shown)
VH: B19 VH with D63N
VL: B19 VL
notes: also called sCD33B1476

Where a chain is given by its changes, count along the chain named.

T2 sequence (P20138 136-259 limits assumed): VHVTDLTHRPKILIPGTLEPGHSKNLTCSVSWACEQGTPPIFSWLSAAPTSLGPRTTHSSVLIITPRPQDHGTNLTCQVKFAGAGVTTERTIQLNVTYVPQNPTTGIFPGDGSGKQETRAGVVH

For the first assay, the target named is T1, human CD33 (full length ECD), recombinant (human, UniProt P20138 18-259).
T1 construct: extracellular domain; Tag or HSA fusion partner unknown; also called hu CD33 (FL ECD); hCD33-FL ECD
T1 sequence (P20138 18-259): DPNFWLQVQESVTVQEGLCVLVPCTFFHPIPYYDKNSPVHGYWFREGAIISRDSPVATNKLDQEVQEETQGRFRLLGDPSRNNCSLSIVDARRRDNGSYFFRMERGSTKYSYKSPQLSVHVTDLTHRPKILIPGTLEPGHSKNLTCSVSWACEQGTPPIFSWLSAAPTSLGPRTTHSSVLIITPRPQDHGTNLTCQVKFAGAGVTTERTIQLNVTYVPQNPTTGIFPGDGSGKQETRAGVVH
Briefly: SPR (Biacore 8K), vHH-mono-Fc captured by anti-human Fc, antigen in solution.
Description: (§1) The binding affinity of anti-CD33 antibodies and Llama vHHs to the recombinant human CD33 (FL ECD or IgC2 domain) was determined by surface plasmon resonance (SPR) using Biacore 8K instrument. […] The association and dissociation were monitored for 2 and 30 minutes, respectively, using a flow rate of 50 μL/min. Raw binding data was referenced by subtracting the analyte binding signals from blanks and analyzed using a 1:1 Langmuir binding model using the Biacore software to obtain the kinetics which were used to calculate the binding affinity.
(§2) The anti-CD33 Llama vHHs on a mono-Fc backbone were captured using an anti-human Fc antibody and the antigens were injected in solution.
With B1, the Kd worked out at 0.357 nM.

For B2, the dissociation constant Kd is 0.792 nM.

Turning to B3, the dissociation constant Kd amounted to 0.707 nM.

With B4, the Kd was 0.67 nM.

With B5, the binding result was “binds”.

For the molecule B6, the dissociation constant Kd is 2.21 nM.

Turning to B7, the Kd was determined as 0.0859 nM.

With B8, the Kd is 0.206 nM.

A further assay concerns the target T2, human CD33 IgC2 domain, recombinant (human, UniProt P20138 136-259).
T2 construct: domain: IgC2; also called hu CD33 (IgC2); hCD33-IgC2
The assay is described as above.
Description: as §1, §2
With B3, the Kd worked out at 4.34 nM.

Regarding B4, the Kd is 3.03 nM.

As for B6, the Kd stood at 0.0559 nM.

The target in a further assay is T3, human CD33 on cells (MOLM-13, Kasumi-1, OCI-AML-3, Kasumi-3) (human, UniProt P20138 18-364).
T3 construct: whole, on cells; also called CD33 expressing cells; CD33+ cell lines
T3 sequence (P20138 18-364): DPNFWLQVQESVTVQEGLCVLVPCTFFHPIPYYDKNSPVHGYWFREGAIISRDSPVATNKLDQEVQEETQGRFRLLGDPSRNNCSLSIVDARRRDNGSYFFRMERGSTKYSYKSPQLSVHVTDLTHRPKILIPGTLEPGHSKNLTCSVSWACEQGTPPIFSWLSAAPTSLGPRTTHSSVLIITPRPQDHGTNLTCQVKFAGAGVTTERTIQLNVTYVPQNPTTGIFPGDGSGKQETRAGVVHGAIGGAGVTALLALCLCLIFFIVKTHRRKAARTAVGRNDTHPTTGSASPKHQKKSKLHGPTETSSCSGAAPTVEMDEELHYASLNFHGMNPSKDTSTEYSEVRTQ
Description: flow cytometry on MOLM-13 cells, 4 °C, serial dilutions of the antibody.
Description: (§3) Cells were harvested, washed once with PBS and then stained with the fixable viability dye at room temperature for 30 min. Following incubation, cells were washed twice with FACS buffer (PBS+2% FBS). Cells were then used for binding assay with test antibodies. 100,000 cells were stained with the test antibodies in a 100 ul staining volume. Antibodies for staining were diluted in FACS buffer and incubated with the cells for 40 mins on ice, followed by washing 2X with FACS buffer. Test antibodies were then detected using the PE conjugated Goat F(ab′)2 Anti-Human IgG-Fc (ab98596; Abcam) for 40 minutes on ice. Following washing, data was acquired on the Novocyte flow cytometer (ACEA). Cells were gated on FSC/SSC, followed by live cell gating and doublet discrimination. Data was analyzed using Flow Jo (BD).
(§4) Median fluorescence intensity values were used to plot a 4-parameter non-linear regression analysis curve after subtracting the MFI of the secondary only sample.
(§5) The binding EC₅₀ values of CD33 antibodies to high (MOLM-13), medium (Kasumi-1) and low (OCI-AML-3) cell lines were assayed. Binding was carried out at 4° C. with serial dilutions of the antibody.
The molecule B9 registered a 50% effective concentration (EC50) of 78.4 nM.

The molecule B10 had an EC50 of 10.6 nM.

Turning to B11, a half-maximal response (EC50) required 32.7 nM.

In another assay the target is T1, human CD33 (full length ECD), …. Briefly: SPR (Biacore 8K), antibody captured by anti-human Fc, antigen in solution.
Description: (§6) Affinities (KD) for the interaction of anti-CD33 antibodies human CD33 (full length ECD and IgC2 domain) were obtained by SPR. The anti-CD33 antibodies were captured using an anti-human Fc antibody and the antigens were injected in solution.
as §1
On to B9, for which the Kd came out at 2.47 nM.

Take B12: the equilibrium dissociation constant (Kd) is 1.1 nM.

In the case of B10, the Kd was 4.44 nM.

Regarding B11, the dissociation constant Kd was over 10 nM.

With B13, the Kd amounted to 1.49 nM.

Turning to B14, the dissociation constant (Kd) turned out to be 0.4 nM.

As to B15, the Kd was 0.5 nM.

For the molecule B16, the Kd turned out to be 0.3 nM.

For B17, the dissociation constant (Kd) was determined as 0.1 nM.

For the molecule B18, the Kd was found to be 0.5 nM.

A further assay addresses T2, human CD33 IgC2 domain, recombinant. Described as above.
Description: as §6, §1
For the molecule B9, the Kd was 3.99 nM.

Turning to B12, the Kd amounted to 6.8 nM.

For B10, the binding result is given as “no binding (tested: 40 nM-1.6 nM CD33 antigen)”.

B11: the binding result is recorded as “no binding (tested: 40 nM-1.6 nM CD33 antigen)”.

Take B13: the binding result was “no binding (tested: 40 nM-1.6 nM CD33 antigen)”.

Take B15: the binding result is recorded as “no binding (tested: 40 nM-1.6 nM CD33 antigen)”.

On to B16, for which the Kd was found to be 56 nM.

As to B17, the Kd is over 10 nM.

The target of the next assay is T3, human CD33 on cells (MOLM-13, Kasumi-1, …). Description: flow cytometry on Kasumi-1 cells, 4 °C, serial dilutions of the antibody.
Description: as §3, §4, §5
In the case of B11, it took 73.4 nM to reach a half-maximal effect (EC50). In other words, the double-digit nanomolar range.

The target is the same in a further assay. Description: flow cytometry on MOLM-13 cells, 4 °C, detection with PE goat F(ab')2 anti-human IgG-Fc.
As to B19, the binding result is “binds”.

Take B20: the binding result is “binds”.

For B21, the binding result was “binds”.

Another assay shares this target. Description: flow cytometry on OCI-AML-3 cells, 4 °C, serial dilutions of the antibody.
Description: as §3, §4, §5
For the molecule B9, the 50% effective concentration (EC50) is 1.26 nM. That is a single-digit nanomolar value.

Take B22: the EC50 stood at 0.8 nM. This EC50 is about 1.6-fold lower than that of the molecule before.

B10 came in with an EC50 of 1.4 nM.

These data come from patent US20230365684A1 (Janssen / Centocor, published 2023).
